This passage reports percent eluted, Hsp70 alone without m3 (control beads' nonadsorbed = 100%) and percent nonadsorbed, Hsp70 alone without m3 (control beads' nonadsorbed = 100%) results from paper PMC2574963.

The target of this experiment is Heat shock protein 90α (human) (UniProt P07900). Description: pull-down.

For “Recombinant human Hsp70 (from UniProt P0DMV8 1-641) (natural protein)”, the percent eluted, Hsp70 alone without m3 (control beads' nonadsorbed = 100%) is 18% and the percent nonadsorbed, Hsp70 alone without m3 (control beads' nonadsorbed = 100%) was 70%.
